Test results reported in the DeepSol protein solubility set.

experiment: soluble on expression in E. coli; label from the status in PepcDB or PDB records

Soluble on expression in E. coli, not soluble:
MKQQEEHNNKIDLLEKQQAQLKSQLETIQKQQTGIISSTKTLTHVIKSVKDQQNTFIFTEFNPAKTKYFILNNGSVALAGRVLSIDATENGSVIHISLVNLLSTPISNIGFNATWGGEKPVDAKEFARWQQLLFNTSMKSTLKLLPGQWQDINLTLKGVSPNNLGYLKLAINMENIQFDNLPSAENRQKRSKK, MKLALLGRQALMGVMAVALVAGMSAKSFADEGLLNKVKERGTLLVGLEGTYPPFSFQGEDGKLTGFEVDFAEALAKHLGVKASLKPTKWDGMLASLDAKRIDVVINQVTISDVRKKKYDFSTPYTVSGIQALVKKGNEGTIKTAADLQGKKVGVGLGTNYEEWLRQHVQGVDIRTYDDDPTKYQDLRVGRIDAILVDRLAALDLVKKTKGTLAVTGDAFSRQESGVALRKGNEDLLKAVDNAIAEMQKDGTLKALSEKWFGADVTQ, KQATMKNAALKQLTKDADEILHLIKVQLDNLTLPSCPLYEEVLDTQMFGLQKEVDFAVKLGLVDREDGKQIMLRLEKELSKLHEAFTLV, MTKAMTAHDYLPLIEKIRKRISSWTGRFLSYCGRLQLIKSVLMSITNFWSSAFRLPGNCMKEIERLCSAFLWSGPDLKTHNAKIAWSKVCLPMCEGGLGLRPLKEINTVCGLKLIWRLLASQTSLWGQWVQTYLIRRNNFWAIKASSYQGSWMWRKLLTLRDVARSFHKKEIHNGRNTSFWYDHWSSMGTLVDVLGARGCIDLGITTTTNMENVFTTRRSRKHRGDLLVRIEAEIEAAKTRHQPDIEDIDLWKPSTGYKKTFSTRETWKLIRMAEPVCEWAKGVWFPKPHQNLLSLLGWVCTIVFQQGTECKSGTAKLTLLAFSAKTLWKQEITYSSTVTTPIKFGKL, MGSDKIHHHHHHMKRKRIDGMNIEIITATIDMLEEIVAIQTAAFSEREPMTMSLNFTKEEMYDYFLKIIPESINSGLTMAAVDEDKGAIAAVVICFDAFAVFPNMEWTQKEIDGISKTNIFFEELEKPLNTNPAFKPEKCVRLMYVSTDENYLRRGIARKLGESMINRAIDLGYELMIADATNINSAGMFEKLGFWQEKVLPYKLVEKDGLKAFGNVEGECILYSRYLQENCFS, MGSDKIHHHHHHMSLNQPPHTRLRHDNPRSPNTFPSRAKVVGAEDLATTSNASTGHGFNLARPVHRNREPATPAPRVVEGANRRRSACEQDISHRHEKIYNWAPAPNTRQGQPTRRLTSRSGPKEREHAARTPRTALQCQRVLALGRVRTCASCGRGSEVLLRGLCPECFDRRYGVVEGLPWELVVDVCTSCGRVRIGHKWLEYATAEEAVGLMLSSMSLKPVHPVERVELEDWALETRLDWRTRVRLRFRANYRDTLFRVSRVIVLRLNPSTCPLCIVRRSGEYDTLVQVRGYRAGEAVEKTLNSLDPREAPIDVVPVRGGVDVYFHHRGAAARFVSRLASTARVRVSRVEHEHVGTSSLGRRRSRKTILVRLEGLTGERGE, MSSGNIHIHSMTGFANAAAECGSKRINLDLRAVNHRFLDIQIRMPDDLRYLESGIREKISSHIARGKVECKIQIQDAENGSQSLELNRDLVGQLAEINKDLRKHHDLAKLGVADILRFPGVLASQRENTEELAKSITELTEKALKDFTAARKREGKKLGEHLLQRLEAMEEIIDALSELFPTLLETHKEKIRARLVEAVGSIDNDRLQQEFALFIQKSDIDEEFSRLRTHIAEVRRIVTEHKGSSGKRLDFLMQELNREANTLGSKSIAAECTQASVELKVLIEQMREQVQNIE, MIDVGGWYNKAELKAKGDEIVKEAKLATRREAESYRAALDAQAQQEARSKGVENTEHIRGMNPITPQEEAEFAAYLDESFSWIPSAFEGYGDPNPDDFDGIIKDLAKVEGTFGGSQSSTKNGDLAWTEKAKSEIEEWKGVFAENLYNNLLLPLPTIQDNHGKIAHVLTEAMKGTQNIYNGQKRDISQLADDTIKQLKKCGTRDGDNTKLGLTVAACLMGVAAAALALPSGGTSVYVTGIVMASISSSTIITNATVKPGDGDIGGKTVNDVIKSMSDGMSRISTEVSEQEQKVVKVLSKNYEMLTGLRQLGNSSKKPTPISPMRPTIADSKNPSSGLKPEGPQ
